For one molecule, EC50 results are on record in patent publication US20250084167A1 (ZENAS BIOPHARMA, published 2025).

The target in the assay is T1, human CD19 (human, UniProt P15391 20-556).
T1 construct: CD19 on B cells of healthy subjects and patients (receptor occupancy in clinical studies); also called human B-cell restricted surface antigen CD19
T1 sequence: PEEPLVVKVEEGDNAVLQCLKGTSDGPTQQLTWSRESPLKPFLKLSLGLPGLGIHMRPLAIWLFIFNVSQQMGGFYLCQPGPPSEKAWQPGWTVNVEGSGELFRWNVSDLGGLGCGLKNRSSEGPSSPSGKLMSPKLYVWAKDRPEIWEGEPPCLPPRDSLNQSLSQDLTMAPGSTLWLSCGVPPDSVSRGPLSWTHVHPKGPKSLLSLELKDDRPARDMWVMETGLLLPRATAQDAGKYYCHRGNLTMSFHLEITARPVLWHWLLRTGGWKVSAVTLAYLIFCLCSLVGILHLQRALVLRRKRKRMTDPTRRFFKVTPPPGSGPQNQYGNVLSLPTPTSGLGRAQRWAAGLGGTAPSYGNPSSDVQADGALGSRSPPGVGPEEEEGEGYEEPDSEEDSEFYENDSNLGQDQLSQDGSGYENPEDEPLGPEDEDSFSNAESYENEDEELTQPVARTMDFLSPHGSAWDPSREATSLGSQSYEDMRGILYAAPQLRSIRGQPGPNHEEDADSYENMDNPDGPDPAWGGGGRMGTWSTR
Put plainly: population PK/PD model of CD19 receptor occupancy (direct response, sigmoidal Emax) against plasma obexelimab concentration, fitted to data of 4 clinical studies (healthy subjects, RA and IgG4-RD patients); in vivo plasma concentration for half-maximal CD19 receptor occupancy, population PK/PD model fit.

B1: Obexelimab (antibody, human IgG1, kappa, V domains shown)
VH: EVQLVESGGGLVKPGGSLKLSCAASGYTFTSYVMHWVRQAPGKGLEWIGYINPYNDGTKYNEKFQGRVTISSDKSISTAYMELSSLRSEDTAMYYCARGTYYYGTRVFDYWGQGTLVTVSS
VL: DIVMTQSPATLSLSPGERATLSCRSSKSLQNVNGNTYLYWFQQKPGQSPQLLIYRMSNLNSGVPDRFSGSGSGTEFTLTISSLEPEDFAVYYCMQHLEYPITFGAGTKLEIKR
notes: Humanized IgG1 kappa; also called XmAb5871; anti-CD19 antibody
A word on the EC50: it is the concentration that produces a half-maximal response. Read a low EC50 as a more potent agent. For B1, a half-maximal effect (EC50) was put at 0.0745 µg/mL.
